Values quoted from earlier work as cited in article PMC12169847, “Targeted protein degradation by KLHDC2 ligands identified by high-throughput screening” (eLife, 2025).

Experiments:
SelK (Homo sapiens) = SelK (Homo sapiens) (UniProt Q9Y6D0); details: cited from earlier work
KLHDC2 = target: KLHDC2; design: method as in Rusnac et al., 2018; details: ref Rusnac et al., 2018; read-out: dissociation constant, reported literature value; cited from earlier work

Chain of KLHDC2 (from UniProt Q9Y2U9) (Q9Y2U9 whole entry): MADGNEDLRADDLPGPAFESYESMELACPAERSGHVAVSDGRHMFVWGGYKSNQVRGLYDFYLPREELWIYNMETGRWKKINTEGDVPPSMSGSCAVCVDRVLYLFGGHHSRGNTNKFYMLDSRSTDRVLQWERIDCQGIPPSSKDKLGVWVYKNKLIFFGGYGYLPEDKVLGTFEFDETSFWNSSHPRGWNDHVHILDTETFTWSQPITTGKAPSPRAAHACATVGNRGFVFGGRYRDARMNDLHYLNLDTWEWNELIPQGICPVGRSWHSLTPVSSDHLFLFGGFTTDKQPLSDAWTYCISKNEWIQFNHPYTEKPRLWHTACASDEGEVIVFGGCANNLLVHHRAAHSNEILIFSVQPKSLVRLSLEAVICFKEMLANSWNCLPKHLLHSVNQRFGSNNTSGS
Chain of SelK (Homo sapiens) (Q9Y6D0 2-94): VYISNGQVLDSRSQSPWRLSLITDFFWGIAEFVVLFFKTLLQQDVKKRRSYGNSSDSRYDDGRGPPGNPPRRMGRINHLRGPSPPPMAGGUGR

## KLHDC2 (from UniProt Q9Y2U9)
SelK (Homo sapiens)
  Kd: 3.4 nM

## SelK: client protein of KLHDC2 with C-terminal diglycine degron
KLHDC2
  Kd: < 10 nM
